Legend:
[1] = target: F-actin (polymerised chicken muscle G-actin) (chicken) (UniProt P68139); assay: co-sedimentation
[2] = target: E-cadΔ70/α monomer (recombinant; E-cadherin cytoplasmic tail lacking the C-terminal 70 aa fused to αE-catenin) (mouse) (UniProt P09803); assay: ITC
[3] = target: E-cad/α monomer (recombinant; entire E-cadherin cytoplasmic tail fused to αE-catenin) (mouse) (UniProt P09803); assay: ITC

| Substance | Kd [1] [nM] | Kd [2] [nM] | dH [2] [kcal/mol] | stoichiometry N [2] | Kd [3] [nM] | dH [3] [kcal/mol] |
| --- | --- | --- | --- | --- | --- | --- |
| E-cadΔ70/α homodimer (recombinant) (from UniProt P09803 736-815) (complex) | 1600 | – | – | – | – | – |
| β-catenin (full-length mouse, recombinant) (from UniProt Q02248 1-781) (natural protein) | – | 36.6 | -16.9 | 1 | 74 | -58 |

— article PMC4586751
